Data on four molecules can be found in PMC5227068, “Pathogenicity Determinants of the Human Malaria Parasite Plasmodium falciparum Have Ancient Origins” (mSphere, 2017).

One may read the koff as a measure of how fast the partners let go of each other. Broadly, the kon is the second-order rate constant of association. A word on the Kd: it is the constant that tells how readily two partners part at equilibrium.

Common to all, as to settings: both partners purified
For assay [1], the target named is T1, recombinant human endothelial protein C receptor (human, UniProt Q9UNN8 18-238).
T1 construct: endothelial protein C receptor, human, recombinant; also called EPCR; human EPCR
T1 sequence (looked up): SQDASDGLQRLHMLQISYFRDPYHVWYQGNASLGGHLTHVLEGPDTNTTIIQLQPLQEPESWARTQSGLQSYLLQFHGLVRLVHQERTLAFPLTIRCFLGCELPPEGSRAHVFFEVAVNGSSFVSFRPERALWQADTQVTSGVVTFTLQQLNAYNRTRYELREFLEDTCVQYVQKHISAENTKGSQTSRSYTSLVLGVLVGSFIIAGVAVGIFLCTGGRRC
The experiment in a line: BLI; Octet Qke; EPCR on the biosensor, CIDR domain in solution; protocol as reported previously (ref. 40); double-reference subtracted data fitted to a 1:1 binding model. On the technique in general: BLI is a label-free optical method that tracks binding on a fibre tip over time.

Assay [2] addresses P. reichenowi var71 CIDRα1.4 (Plasmodium reichenowi). The experiment in a line: BLI; Octet Qke; CIDR domains on recombinant human EPCR, protocol as reported previously (ref. 40); 1:1 fit.
Assay [3] addresses T2, P. reichenowi CDO61774.1 CIDRα1.4 (Plasmodium reichenowi, UniProt A0A060RM78 1-3575).
T2 construct: CIDRα1.4 domain of the P. reichenowi erythrocyte membrane protein 1 (PrEMP1) of entry CDO61774.1; Construct His6-MBP-TEV-CIDR-StrepII; also called P. reichenowi CD061774.1 CIDRα1.4; Pr CDO61774.1 CIDRα1.4; source: pSHuffle expression hosts (New England Biolabs), purified (two-step process); not shown: StrepII, C-terminal, kept
The assay is described as above.

The target in assay [4] is T3, P. reichenowi CDO62090.1 CIDRα1.4 (Plasmodium reichenowi, UniProt A0A060RMQ3 1-4072).
T3 construct: CIDRα1.4 domain of the P. reichenowi erythrocyte membrane protein 1 (PrEMP1) of entry CDO62090.1; Construct His6-MBP-TEV-CIDR-StrepII; also called Pr CDO62090.1 CIDRα1.4; source: pSHuffle expression hosts (New England Biolabs), purified (two-step process); not shown: StrepII, C-terminal, kept
The assay is described as above.

B1: P. reichenowi CDO62090.1 CIDRα1.4 (domain or fragment)
chain: TKINVLYSGDKQGDITQKLQNFCSDENKENGTNYQKWECYYKDEKQNKCKMDKTSGKNMTEDKIMSFDEFFYSWVTNFLIDTINWENELKNCMNNTILTDCNDGCKINCVCFDKWVKQKENEWENVKKVFENKNGISDNYYNKLKYIFEGFFFQVLYKLNQDEAKWNQLKQKLKEIIVSSKANTGKEHSQDAIKPLLEYIKEKSTICKDNNTN
In the case of B1, in assay [1], the koff came out at 0.000443 s⁻¹ and the kon turned out to be 7350 M⁻¹ s⁻¹.

B2: P. reichenowi CDO61774.1 CIDRα1.4 (domain or fragment)
chain: TEIKVIVSGNEQGDISKKLEDFCSDENNENGKNYQKWECYYKSSQNNKCKMETKSGTSITEEKVTSFDAFFDLWVKNLLRDSIKWETELKDCINNSNVTDCNNDCNKNCVCFDKWVKQKEEVWKNMKTVLGNQKENLDNYYNKLNGLFKGFFFPVMFELNHDEAKWNKLMENLKKKIESSKENRGTVNSQDAIELLLEYLKEKSTICKDNNTN
As for B2, in assay [1], the Kd stood at 6.2 nM, the koff came out at 0.000293 s⁻¹ and the kon is 47300 M⁻¹ s⁻¹.

B3: recombinant human EPCR (receptor)
chain: SQDASDGLQRLHMLQISYFRDPYHVWYQGNASLGGHLTHVLEGPDTNTTIIQLQPLQEPESWARTQSGLQSYLLQFHGLVRLVHQERTLAFPLTIRCFLGCELPPEGSRAHVFFEVAVNGSSFVSFRPERALWQADTQVTSGVVTFTLQQLNAYNRTRYELREFLEDTCVQYVQKHISAENTKGSQTSRSYTS
With B3, the Kd in assay [2] was determined as 23 nM.

B4: recombinant human EPCR (receptor)
chain: SQDASDGLQRLHMLQISYFRDPYHVWYQGNASLGGHLTHVLEGPDTNTTIIQLQPLQEPESWARTQSGLQSYLLQFHGLVRLVHQERTLAFPLTIRCFLGCELPPEGSRAHVFFEVAVNGSSFVSFRPERALWQADTQVTSGVVTFTLQQLNAYNRTRYELREFLEDTCVQYVQKHISAENTKGSQTSRSYTS
modifications: construct limits not given; taken as the soluble extracellular domain after the signal peptide, from the candidate's features
In the case of B4, the Kd in assay [3] worked out at 6 nM; in assay [4], 60 nM.
